Test results as given in patent US20220009959A1.

Legend:
[1] = target: high molecular weight HCPs (MW>150 kDa) of CHO-K1 IgG1 harvest (Chinese hamster (CHO-K1)); assay: flow-through, SEC; 10-30 CV load
[2] = target: high molecular weight HCPs (MW>150 kDa) of CHO-K1 IgG1 harvest (Chinese hamster (CHO-K1)); assay: flow-through, SEC; 1 min RT, 60 CV cut-off load
[3] = target: low molecular weight HCPs (10 kDa<MW<150 kDa) of CHO-K1 IgG1 harvest (Chinese hamster (CHO-K1)); assay: flow-through, SEC; 1 min RT, 60 CV cut-off load
[4] = target: CHO-K1 host cell proteins of mAb production clarified cell culture harvest (Chinese hamster (CHO-K1)); assay: static binding pH 6, 150 mM NaCl
[5] = target: monoclonal antibody product of the CHO-K1 production harvest; assay: static binding pH 6, 150 mM NaCl
[6] = target: CHO-K1 host cell proteins of mAb production clarified cell culture harvest (Chinese hamster (CHO-K1)); assay: static binding pH 7, 20 mM NaCl; HCP ELISA over Easy-Titer (reference: mAb m53)

Row | fold reduction in HMW species [1] | percent reduction in HMW % [2] | percent reduction in LMW % [3] | Kp (partition coefficient) [4] | Kp (partition coefficient) [5] | HCP targeted binding ratio (TBR; % HCP removed / % mAb removed) [6] | Substance
1 | 2 to 4 fold | 50% | 36% | – | – | – | 6HP/4MP-Toyopearl resin
2 | – | – | – | 7.3 | 0.75 | 4.87 | 4MP-Toyopearl resin
3 | – | – | – | 6.1 | 0.96 | – | 6HP-Toyopearl resin
